Measured values published in the DeepSol protein solubility set.

Assay: soluble on expression in E. coli; label from the status in PepcDB or PDB records

Row | Sequence | soluble on expression in E. coli
1 | GPGSMFSLVRGLYSSIFADDTRKVLIVGLESSGKTTLSEQLKHMYATESSKNGANSSTTEENSGDATASEVNYNFPTPAPVESLRKKIRPTTGLNRSSVTHVTTPPQHETPNVSLTPLTTPLILWDIGGSLRPLWGNFFGTCHGVIFVVDSTLGEATSNGCSEGGRKTSPDQVGTSEDDESDVGAQPNSPIGDVREGERSQFLRKLYAKDALILRQMFSHPLLAGAPLLIVSNKVDAANHHTLVEIQDALRLVDVALMDEFYADDCVVGEPVYGELHRNGEGDYEGPPDRSAYDKLSNEKSFGGVATPPPGSSGIGNRVMRLVEMSALHGTGVVDGMNWLVAQMRDSGRQPLPDDGK | not soluble
2 | MENISDLWNSALKELEKKVSKPSYETWLKSTTAHNLKKDVLTITAPNEFARDWLESHYSELISETLYDLTGAKLAIRFIIPQSQAEEDIDLPPVKPNPAQDDSAHLPQSMLNPKYTFDTFVIGSGNRFAHAASLAVAEAPAKAYNPLFIYGGVGLGKTHLMHAIGHYVIEHNPNAKVVYLSSEKFTNEFINSIRDNKAVDFRNKYRNVDVLLIDDIQFLAGKEQTQEEFFHTFNALHEESKQIVISSDRPPKEIPTLEDRLRSRFEWGLITDITPPDLETRIAILRKKAKAEGLDIPNEVMLYIANQIDSNIRELEGALIRVVAYSSLINKDINADLAAEALKDIIPNSKPKIISIYDIQKAVGDVYQVKLEDFKAKKRTKSVAFPRQIAMYLSRELTDSSLPKIGEEFGGRDHTTVIHAHEKISKLLKTDTQLQKQVEEINGILKLEHHHHHH | not soluble
3 | MGSDKIHHHHHHMNHPSVFHPGPAAISPQQRLLLMHEGEWEDFIEECVRQLQKEGNYVEVVALGGSGDKGRDVCGYSKEYPAAGTWDLYQAKHYDSPLTPSEFFPELAKFVTCVWREDYTRPAKYFICASRDVGTTLFDLLKNPVRLKERLLDDWRKKGGKFGKFKQPLDADLEKFIEVFPFDVVKRLPPMELLSIHERDTASYWARFGVLAPRENDPEVPPKPVSSESTYVTALLRVYAEHAQVKIDDVPDIPPAHGAHFKAQRRLFYSAEGLHRFSRDKLPGAFEALLDEVENGIGAELTFPHESGFVRLHSVLKTANVLQIMNNPLRARLRSGDLQGSCHHLANQGRAQWVESDEADGESV | not soluble
4 | MSLLTVVHDQDSSNEDACGSRSLLDEIVRDGARQMLAAALAAEVAAYIDAHAGEVDENGHRLVVRNGYHREREVLTAAGAVTVIAPRVNDKRIDADTAERRRFSSAILPAWARKSPQMTEVLPLLYLHGLSTSDFGPALEQFLGSGAGLSATTITRLTAQWQDEAKAFGERDLSGTDYVYLWVDGIHLKVRLEQEKLCLLVMIGVRSDGRKELVGLADGYRESTESWADLLRSCRRRGMTAPVLAVGDGALGFWKAMREVFPATREQRCWFHKQANVLSCLPKSAHPGALAAMREIYNAEDIDHAQVAIKAFEVDYGAKYPKAVAKIVDDADVLLEFYRYPAEHWIHLRTTNPIESTFATVRLRTKVTKGPGSRAAGIAMAYKLIDAAQARWRAVNAPHLVALVRAGAVFHKGKLLEREGHHHHHH | not soluble
5 | MGHHHHHHSHMEKNLLLTIESLYKNLRKANKAVDFTTVKFLLQDSRSLLHAFSTRSNYDGILPQTFAQVNNLLQTFAEVKTKLKPNSSENTVTKKQEGTSLKNSHNQEITVFSSSHLPQPSRHQEIWSILESVWITIYQNSTDVFQRLGSNSALTTSNIASFEEAFICLQKLMAAVRDILEGIQRILAPNSNYQDVETLYNFLIKYEVNKNVKFTAQEIYDCVSQTEYREKLTIGCRQLVEMEYTMQQCNASVYMEAKNRGWCEDMLNYRI | not soluble
6 | MAGSVGEETEPEWIKRVKLEGAVPCLKPDDNCKNGWTTPSPDTFMVRGPKYFSDKVKIPAGDFLLKPLGFDWIKGPKKLSEILSYPSSRIRKVIDEEFQKDGTKPFVWAFNLQLPHKDNYSAVAYFVTTEPILEGSLMDRFLKGDDGFKKSRLKLIANIVKGPWIVRKAVGEQAICVIGRALSCKYVSGENFVEIDVDIGSSMVASAIVHLAFGYVTTLTVDLAFLIESQTEAELPEKLLGAVRFSELQTESATSIELSSSTSNDQWDQTTSERSSWWKSIGNGFSNLLNQDTANMNNTSHGDIQKDEHVQKQ | soluble
7 | MDKIIKSIAQSGAFRAYVLDSTETVALAQEKHNTLSSSTVALGRTLIANQILAANQKGDSKITVKVIGDSSFGHIISVADTKGHVKGYIQNTGVDIKKTATGEVLVGPFMGNGHFVTIIDYGTGNPYTSTTPLITGEIGEDFAYYLTESEQTPSAIGLNVLLDENDKVKVAGGFMVQVLPGASEEEIARYEKRLQEMPAISHLLASKNHVDALLEAIYGDEPYKRLSEEPLSFQCDCSRERFEAALMTLPKADLQAMIDEDKGAEIVCQFCGTKYQFNESDLEAIISDKA | not soluble
8 | MRVEIVPIRPEFDAEICQIIQSVGAEFGAIGEGFGPSDAEVLAMSQYYREQDRSAYFVALLEGKVVGGGGIAPFAGHTDLCELKKLFLLPTSRGHGVGRALSEHCLNFAKQQGYTKCYLDTLSSMTQAIKLYQQLGFEHLTQPMAGTEHNGCDVWMLKSLN | not soluble
9 | TAPTLAEEVKQQSDGSVIIEGSANLRDLNKLFNWHLPINEVRTFNGLILEHLEKIPIEGTQFRLNQLNITVLEVADNMVKKVKVELIE | soluble
10 | MRGIHRLSALLVKSASQGKYCDGAGLWLNVRKDNTRSWFFRYTYHNKRREMGLGPVAQLSLKEARELAKHYSAILREGNDPIVFREQTVLKQQSNIFSEIATAAFESKKAELKNEGKNGRWFSPLELHVIPHIGSLSIEKLTANIIRNVLAPLWHEKADTARKALNRINICLKYAAALGLDVDLQACMKARALLGKPRATSTNIPAMPWQEVPAFYQSLDDKILSNLALKLLILTGVRSYPLRYLRLEQIDKDIWTIPKENMKGIVGKVSDFRVPLSHEALKMIEKSLPFEKNGFLFAGSSGKPISDVTLSKFMKDKGFDYRPHGFRSSLRDWIAETTSTPFEIAETVLAHSVGSSVTKAYMRTDFLEQRHTLMEQWAAFITGAT | not soluble
11 | IEEGKIVFAVGGAPNEIEYWKGVIAEFEKKYPGVTVELKRQATDTEQRRLDLVNALRGKSSDPDVFLMDVAWLGQFIASGWLEPLDDYVQKDNYDLSVFFQSVINLADKQGGKLYALPVYIDAGLLYYRKDLLEKYGYSKPPETWQELVEMAQKIQSGERETNPNFWGFVWQGKQYEGLVCDFVEYVYSNGGSLGEFKDGKWVPTLNKPENVEALQFMVDLIHKYKISPPNTYTEMTEEPVRLMFQQGNAAFERNWPYAWGLHNADDSPVKGKVGVAPLPHFPGHKSAATLGGWHIGISKYSDNKALAWEFVKFVESYSVQKGFAMNLGWNPGRVDVYDDPAVVSKSPHLKELRAVFENAVPRPIVPYYPQLSEIIQKYVNSALAGKISPQEALDKAQKEAEELVKQYS | soluble
12 | MAEHRGGSGNFAEDREKASDAGRKGGQHSGGNFKNDPQRASEAGKKGGQQSGGNKSGKS | soluble
13 | MMKTNTKKAKYDDAELFEKVLVGMSWLESHLREIIQTMVTDADVSFEQFLILYYLDHSTDHRITVKELAADRHVSSSAISRKLTYLINNDLIVLNIDPYDRRYRYLTLTAKGEKLARVIEKVNEERLGKFLDEFGRIRTSELTDELRMVSKVLVDTKEIKG | not soluble
14 | MSLDVSEGGVTVSVPTASGGGEGAADDVFFNATQELNRDLTVATLAAFREREPRAASYLDAMTASGIRGVRAANAGWDVTMADVDADAVELATSNLARNGLDGEVVARDANSLLHDHDRVLDVVDIDPFGSPMPFADAAFANARNLVCVTATDTAPLCGAHFESGVRKYSATPRNTNYHAEMGLRILLGALARTAARYDVGVTPILSHVSDHYVRTYLELDHRATDANAAVEQVGHVYHCQQCLSRDHEYGLVAAPRAECPRCGGHQVLTAGPLWLGPAHEEAFAASVREQLTREMGEASQAFHLLQTIEGELHEPTHYDQHRLYSQWGEPAVGMAEFLDQLRDAGLRASRTHFGGTTFKTDGGLAEVEAAVLEGHHHHHH | not soluble
15 | PITNGHLDLIERAAQMFDEVIIAVAASPSKNTLFTLEERVEFARQVTSHLDNVSAKGFSGLLVDFAKAEKANVLIRGLRTTVDFEYEFGLTNMYRRLMPGLESVFLTPAEEHAFISSTLVREVAIHGGNVDEFVPAIVANALHQKKKI | not soluble
16 | MASNEKTRYKAIIADHTYTIIGQESKQHMDLVTKIVNEQLAEIKHLSPQTDTEQASVLLAINAISDQLKKQEYALKLEKQVADLKQKTIRLAELENRVRRMEIIEEEARDVLKKNGQEDVEIHNHVEAQQILNENRKQQIQNKGVSE | not soluble
17 | MPGTTDQIDVNVEVKEKPTGAVMFGAGYSNMEGLILSGSVAQDNIFGTGKFVNLMVNTGSVNKTYSLSYTDPYFTKDGVTAGLDLYKRVLNTRTLSSVMNFNTDTLGAGLRFGIPINENDSIMGGLGAEQTTIDLGPDSPQRNIDFVNKFGRTTINIPATLSWRRDGRDSAIWTTSGTTQRVFAEVGLPGGDLTYYKLSYDLRWYFPITEIFTLMLNGELGYGDGYSGKELPFFKNFFAGGNTSVRGYNISSLGPRDATNRTLGGNKRAVGNIEVLFPMPGMRNDRTVRLSAFLDGGTVWGPGGVRPDQEGLRYSAGIAVTWISPMGPLKISVAQPLNSQPGDNIQRFQFQFGQQFLEHHHHHH | soluble
18 | MGSDKIHHHHHHMTQELTFSIKSLRFDEDYRPAANTRNTTNFANLARGQRRQENLRNTLAMINNRFNDLAHWDNPKRDRYAVELDIISVEMKIGERDTGDAFPLIEILQPSILDQTTGARIDGIAGNNFSSYVRDYDFSVLLPAHNQDTSSFSLPEGFGSLHGTLFKQFVNSDTYTARFAKPPVICISVSSSKVYHRTGNRHPILGVEYRQDAFSLTDQYFEKMGLQVRYFMPPNSVAPLAFYFLGDLLNDYTNLELIGTISTMETFQKIYRPEIYNANSAAGTIYQPSLKHQDYSATQIVYDRQERSQLAVTQGKFTQEHFIKPYGDILEQWASSHAFSSTPTQDIAHHE | not soluble
19 | MSLELKNKKIVVTGGTSGIGLAFAKKLAAIDNQIIIGSRSKEKITEVVKDNKNISGYQVDVSDQESVERFYKQTISEFKNIDIVINSAGIMRHYNLLDEKTTSQKLQAEIQTNLIGTINIDKIFLPILRKQAESMIVNISSGLANLSSAAHPIYSATKAGVHMFTDALREQLHFAGEDHIHIVELVPPLVAETNLEKDVNSQNTPLNIKLSDLINEAIQGIEENSIRINAGMAKEMRKMGQTDPDKNEREMATMMIPMYFPDGLKEGHHHHHH | not soluble
20 | MPSRYTNILVPVDSSDAAQAAFTEAVNIAQRHQANLTALYVVDDSAYHTPALDPVLSELLDAEAAHAKDAMRQRQQFVATTSAPNLKTEISYGIPKHTIEDYAKQHPEIDLIVLGATGTNSPHRVAVGSTTSYVVDHAPCNVIVIR | not soluble
